Source: paper PMC8956657 (Nature Communications, 2022)
Where no end group is shown, it is not given here.

Assays:
Assay in all cases: fluorescence polarisation
Conditions in all cases: both partners purified
[1] = molecular target: IMPα1 lacking the IBB domain (residues 70-529) (UniProt P52292 70-529)
[2] = molecular target: T1, IMPα3 lacking the IBB domain (residues 64-521) (UniProt O00629 64-521)
T1 construct: also called ΔIBB-IMPα3; KPNA4
T1 sequence (looked up): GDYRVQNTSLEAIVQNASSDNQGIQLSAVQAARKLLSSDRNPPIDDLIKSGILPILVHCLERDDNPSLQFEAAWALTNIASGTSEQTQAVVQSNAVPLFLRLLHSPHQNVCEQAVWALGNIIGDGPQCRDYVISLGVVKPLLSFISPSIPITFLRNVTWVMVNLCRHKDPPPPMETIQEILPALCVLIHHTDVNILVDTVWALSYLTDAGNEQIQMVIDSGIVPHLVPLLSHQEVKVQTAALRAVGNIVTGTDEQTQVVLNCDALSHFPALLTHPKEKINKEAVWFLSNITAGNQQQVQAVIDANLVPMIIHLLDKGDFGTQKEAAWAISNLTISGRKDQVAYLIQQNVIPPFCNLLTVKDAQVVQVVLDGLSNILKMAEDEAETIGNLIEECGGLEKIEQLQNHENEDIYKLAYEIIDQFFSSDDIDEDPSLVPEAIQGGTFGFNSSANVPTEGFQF

[3] = molecular target: T2, IMPα7 lacking the IBB domain (residues 73-536) (UniProt O60684 73-536)
T2 construct: also called ΔIBB-IMPα7; importin alpha 7

[4] = molecular target: T3, IMPα5 lacking the IBB domain (residues 73-538) (UniProt P52294 73-538)
T3 construct: also called ΔIBB-IMPα5; importin alpha 5
T3 sequence (P52294 73-538): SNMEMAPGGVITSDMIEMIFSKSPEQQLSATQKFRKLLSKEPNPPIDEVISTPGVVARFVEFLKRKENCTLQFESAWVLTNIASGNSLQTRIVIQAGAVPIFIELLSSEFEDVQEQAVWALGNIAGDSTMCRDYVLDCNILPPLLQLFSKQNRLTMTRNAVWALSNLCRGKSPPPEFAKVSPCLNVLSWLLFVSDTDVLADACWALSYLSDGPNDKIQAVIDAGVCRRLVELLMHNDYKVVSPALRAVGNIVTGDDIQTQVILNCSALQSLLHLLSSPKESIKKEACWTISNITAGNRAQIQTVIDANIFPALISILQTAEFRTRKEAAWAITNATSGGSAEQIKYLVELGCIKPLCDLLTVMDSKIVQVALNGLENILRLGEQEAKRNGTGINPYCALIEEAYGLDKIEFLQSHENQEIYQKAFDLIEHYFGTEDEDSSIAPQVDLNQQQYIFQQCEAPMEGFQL

T2 sequence (O60684 73-536): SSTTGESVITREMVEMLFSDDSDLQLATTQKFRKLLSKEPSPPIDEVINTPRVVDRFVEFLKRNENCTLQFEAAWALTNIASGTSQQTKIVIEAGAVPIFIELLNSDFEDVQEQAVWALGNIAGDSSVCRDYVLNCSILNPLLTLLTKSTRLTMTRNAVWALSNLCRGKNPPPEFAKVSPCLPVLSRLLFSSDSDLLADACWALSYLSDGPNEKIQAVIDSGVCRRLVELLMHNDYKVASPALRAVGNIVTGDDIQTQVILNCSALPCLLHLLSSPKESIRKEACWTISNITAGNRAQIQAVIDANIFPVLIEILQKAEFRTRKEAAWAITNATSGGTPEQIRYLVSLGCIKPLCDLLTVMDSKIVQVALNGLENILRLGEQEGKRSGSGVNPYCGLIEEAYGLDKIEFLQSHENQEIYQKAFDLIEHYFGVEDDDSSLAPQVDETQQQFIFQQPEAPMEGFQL

B1: FITC-tagged MERS-CoV ORF4b NLS peptide (residues 19-39), wild type (peptide)
peptide: RKARKRSHSPTKKLRYVKRRF
modifications: also: FITC-tagged
B1 gave a Kd [1] of 2.5 nM, a Kd [2] of 1.4 nM and a Kd [3] of 1.9 nM. B1: binds [4].
